Measured values taken from IntAct's records for PubMed 31515488.

Tests used:
tom1_human TOM1 = tom1_human TOM1 (UniProt O60784)
reep6_human REEP6 = reep6_human REEP6 (UniProt Q96HR9)
atrap_human AGTRAP = atrap_human AGTRAP (UniProt Q6RW13)
tfp11_human TFIP11 = tfp11_human TFIP11 (UniProt Q9UBB9)
nqo2_human NQO2 = molecular target: T1, nqo2_human NQO2 (UniProt P16083)
T1 sequence: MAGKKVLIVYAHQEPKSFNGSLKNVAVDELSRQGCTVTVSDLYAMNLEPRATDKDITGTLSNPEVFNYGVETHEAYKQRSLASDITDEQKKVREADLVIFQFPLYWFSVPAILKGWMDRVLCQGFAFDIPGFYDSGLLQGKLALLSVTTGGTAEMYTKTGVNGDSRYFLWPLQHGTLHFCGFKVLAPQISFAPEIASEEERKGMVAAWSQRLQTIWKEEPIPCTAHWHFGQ

rgs3_human RGS3 = rgs3_human RGS3 (UniProt P49796)
stox1_human STOX1 = stox1_human STOX1 (UniProt Q6ZVD7)
zn446_human ZNF446 = zn446_human ZNF446 (UniProt Q9NWS9)
zn496_human ZNF496 = zn496_human ZNF496 (UniProt Q96IT1)
zsc32_human ZSCAN32 = zsc32_human ZSCAN32 (UniProt Q9NX65)
pgbd1_human PGBD1 = pgbd1_human PGBD1 (UniProt Q96JS3)
odam_human ODAM = molecular target: T2, odam_human ODAM (UniProt A1E959)
T2 sequence: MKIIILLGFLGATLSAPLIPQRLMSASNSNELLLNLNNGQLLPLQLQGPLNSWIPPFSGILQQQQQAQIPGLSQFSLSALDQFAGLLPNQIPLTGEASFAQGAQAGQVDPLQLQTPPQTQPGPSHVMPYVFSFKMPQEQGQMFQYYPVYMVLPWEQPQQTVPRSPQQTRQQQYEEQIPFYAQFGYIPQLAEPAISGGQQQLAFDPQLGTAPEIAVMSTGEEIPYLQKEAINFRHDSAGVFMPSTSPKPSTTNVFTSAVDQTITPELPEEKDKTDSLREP

rhxf2_human RHOXF2 = molecular target: T3, rhxf2_human RHOXF2 (UniProt Q9BQY4)
T3 sequence: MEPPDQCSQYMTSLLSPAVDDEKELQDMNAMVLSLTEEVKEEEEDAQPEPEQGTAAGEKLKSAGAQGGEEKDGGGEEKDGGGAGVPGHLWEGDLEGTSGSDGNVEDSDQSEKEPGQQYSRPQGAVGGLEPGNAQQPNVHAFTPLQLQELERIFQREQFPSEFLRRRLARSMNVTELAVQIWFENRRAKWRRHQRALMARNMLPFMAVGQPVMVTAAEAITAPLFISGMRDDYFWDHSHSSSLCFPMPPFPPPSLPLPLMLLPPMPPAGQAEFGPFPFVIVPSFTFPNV

S100A1 = S100A1 (UniProt P23297)
Sequence of S100A1 (P23297 whole entry): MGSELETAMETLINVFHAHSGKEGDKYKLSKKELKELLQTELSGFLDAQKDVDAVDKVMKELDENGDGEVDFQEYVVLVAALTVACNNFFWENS

cc136_human CCDC136 = cc136_human CCDC136 (UniProt Q96JN2)
cep70_human CEP70 [1] = molecular target: cep70_human CEP70 (UniProt Q8NHQ1)
Sequence of cep70_human CEP70 (Q8NHQ1 whole entry): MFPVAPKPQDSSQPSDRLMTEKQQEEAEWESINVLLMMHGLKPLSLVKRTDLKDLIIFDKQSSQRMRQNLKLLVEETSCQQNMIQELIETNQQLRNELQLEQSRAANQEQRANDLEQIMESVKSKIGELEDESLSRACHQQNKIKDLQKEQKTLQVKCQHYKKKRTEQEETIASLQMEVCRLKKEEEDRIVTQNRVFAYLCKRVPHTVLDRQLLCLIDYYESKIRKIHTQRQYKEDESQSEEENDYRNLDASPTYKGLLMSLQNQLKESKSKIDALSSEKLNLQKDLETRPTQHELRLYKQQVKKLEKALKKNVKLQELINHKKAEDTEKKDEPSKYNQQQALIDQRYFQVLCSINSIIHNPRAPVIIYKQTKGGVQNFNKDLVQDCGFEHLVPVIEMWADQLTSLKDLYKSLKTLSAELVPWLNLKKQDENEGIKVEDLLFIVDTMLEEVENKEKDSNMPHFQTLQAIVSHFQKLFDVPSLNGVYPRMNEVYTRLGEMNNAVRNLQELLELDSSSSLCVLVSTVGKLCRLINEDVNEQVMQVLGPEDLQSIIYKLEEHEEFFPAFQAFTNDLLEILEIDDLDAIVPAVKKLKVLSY

tri41_human TRIM41 [2] = molecular target: tri41_human TRIM41 (UniProt Q8WV44)
mtus2_human MTUS2 = mtus2_human MTUS2 (UniProt Q5JR59)
zc4h2_human ZC4H2 = zc4h2_human ZC4H2 (UniProt Q9NQZ6)
nup50_human NUP50 = nup50_human NUP50 (UniProt Q9UKX7)
spopl_human SPOPL = spopl_human SPOPL (UniProt Q6IQ16)
an32b_human ANP32B = an32b_human ANP32B (UniProt Q92688)
ccdb1_human CCNDBP1 = ccdb1_human CCNDBP1 (UniProt O95273)
nf2l2_human NFE2L2 = nf2l2_human NFE2L2 (UniProt Q16236)
Sequence of nf2l2_human NFE2L2 (Q16236 whole entry): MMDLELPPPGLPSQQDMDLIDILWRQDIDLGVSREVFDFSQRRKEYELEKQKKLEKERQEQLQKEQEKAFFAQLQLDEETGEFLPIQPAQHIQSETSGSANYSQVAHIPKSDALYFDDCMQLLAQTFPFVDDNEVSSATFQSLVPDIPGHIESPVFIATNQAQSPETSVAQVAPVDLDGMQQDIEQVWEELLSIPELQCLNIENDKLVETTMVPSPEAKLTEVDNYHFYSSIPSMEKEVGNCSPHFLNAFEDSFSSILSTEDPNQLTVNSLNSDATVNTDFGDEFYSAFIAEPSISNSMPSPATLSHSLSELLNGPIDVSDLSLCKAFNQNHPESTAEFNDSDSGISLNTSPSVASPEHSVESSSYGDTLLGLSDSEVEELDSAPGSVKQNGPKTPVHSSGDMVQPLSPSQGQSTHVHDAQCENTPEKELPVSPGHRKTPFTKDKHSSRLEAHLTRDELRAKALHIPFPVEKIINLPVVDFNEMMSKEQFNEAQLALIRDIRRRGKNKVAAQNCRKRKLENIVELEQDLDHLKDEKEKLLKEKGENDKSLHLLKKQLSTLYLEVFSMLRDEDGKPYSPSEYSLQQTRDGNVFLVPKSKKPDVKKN

jkip2_human JAKMIP2 = jkip2_human JAKMIP2 (UniProt Q96AA8)
leg9b_human LGALS9B = leg9b_human LGALS9B (UniProt Q3B8N2)
pdli7_human PDLIM7 = pdli7_human PDLIM7 (UniProt Q9NR12)
anr44_human ANKRD44 = anr44_human ANKRD44 (UniProt Q8N8A2)
Sequence of anr44_human ANKRD44 (Q8N8A2 whole entry): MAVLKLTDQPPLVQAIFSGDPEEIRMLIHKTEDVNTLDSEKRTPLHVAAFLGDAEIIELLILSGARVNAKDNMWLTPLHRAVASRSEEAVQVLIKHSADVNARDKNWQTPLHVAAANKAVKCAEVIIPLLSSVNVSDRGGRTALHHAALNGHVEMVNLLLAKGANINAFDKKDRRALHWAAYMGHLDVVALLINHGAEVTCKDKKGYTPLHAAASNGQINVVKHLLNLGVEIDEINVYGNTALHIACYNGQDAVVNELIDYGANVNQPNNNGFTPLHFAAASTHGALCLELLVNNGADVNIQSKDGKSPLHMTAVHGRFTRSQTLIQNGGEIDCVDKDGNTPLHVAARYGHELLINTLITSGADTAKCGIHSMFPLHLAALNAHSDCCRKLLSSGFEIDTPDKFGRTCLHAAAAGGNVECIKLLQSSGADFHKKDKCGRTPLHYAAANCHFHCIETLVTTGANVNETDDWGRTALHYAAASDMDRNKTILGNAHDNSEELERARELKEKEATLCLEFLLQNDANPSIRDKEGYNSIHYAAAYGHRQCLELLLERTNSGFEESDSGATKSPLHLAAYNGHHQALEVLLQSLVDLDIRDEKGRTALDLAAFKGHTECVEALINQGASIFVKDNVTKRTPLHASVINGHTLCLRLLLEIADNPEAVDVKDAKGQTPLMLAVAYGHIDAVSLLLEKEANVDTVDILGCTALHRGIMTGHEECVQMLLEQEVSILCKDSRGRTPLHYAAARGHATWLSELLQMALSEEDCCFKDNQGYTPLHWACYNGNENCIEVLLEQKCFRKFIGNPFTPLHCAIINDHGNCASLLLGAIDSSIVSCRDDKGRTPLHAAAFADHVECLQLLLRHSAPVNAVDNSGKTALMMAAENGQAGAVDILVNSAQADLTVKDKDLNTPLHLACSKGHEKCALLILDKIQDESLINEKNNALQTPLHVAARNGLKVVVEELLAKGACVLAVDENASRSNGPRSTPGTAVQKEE

snrpa_human SNRPA = snrpa_human SNRPA (UniProt P09012)
ptbp2_human PTBP2 = ptbp2_human PTBP2 (UniProt Q9UKA9)
mycd_human MYOCD = molecular target: T4, mycd_human MYOCD (UniProt Q8IZQ8)
T4 sequence: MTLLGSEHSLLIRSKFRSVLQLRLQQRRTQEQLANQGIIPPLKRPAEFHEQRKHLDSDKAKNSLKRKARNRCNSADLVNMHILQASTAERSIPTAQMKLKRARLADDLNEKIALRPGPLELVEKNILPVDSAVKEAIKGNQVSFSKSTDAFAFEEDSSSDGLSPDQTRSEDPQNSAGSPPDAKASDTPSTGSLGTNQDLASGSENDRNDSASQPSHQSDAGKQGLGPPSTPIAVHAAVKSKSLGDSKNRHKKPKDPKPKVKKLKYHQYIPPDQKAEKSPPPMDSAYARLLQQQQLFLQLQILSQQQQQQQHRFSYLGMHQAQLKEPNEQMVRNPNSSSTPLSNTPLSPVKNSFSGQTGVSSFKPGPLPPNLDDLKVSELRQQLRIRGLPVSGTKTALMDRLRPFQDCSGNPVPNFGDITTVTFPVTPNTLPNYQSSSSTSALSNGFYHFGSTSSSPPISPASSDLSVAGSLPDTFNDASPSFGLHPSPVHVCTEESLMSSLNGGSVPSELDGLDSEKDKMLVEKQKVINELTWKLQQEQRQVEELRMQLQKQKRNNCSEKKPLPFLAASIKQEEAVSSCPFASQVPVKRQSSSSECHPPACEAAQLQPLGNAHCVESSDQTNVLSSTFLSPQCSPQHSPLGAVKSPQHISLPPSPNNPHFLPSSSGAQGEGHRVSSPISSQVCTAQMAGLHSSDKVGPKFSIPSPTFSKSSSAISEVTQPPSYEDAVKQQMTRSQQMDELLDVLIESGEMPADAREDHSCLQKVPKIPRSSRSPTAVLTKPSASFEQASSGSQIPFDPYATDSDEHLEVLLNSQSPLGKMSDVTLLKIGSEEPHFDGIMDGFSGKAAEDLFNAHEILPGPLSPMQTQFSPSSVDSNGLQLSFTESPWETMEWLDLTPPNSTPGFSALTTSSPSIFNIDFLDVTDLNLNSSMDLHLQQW

gt253_human CERCAM = gt253_human CERCAM (UniProt Q5T4B2)
vtnc_human VTN = vtnc_human VTN (UniProt P04004)
fosl2_human FOSL2 = molecular target: T5, fosl2_human FOSL2 (UniProt P15408)
T5 sequence: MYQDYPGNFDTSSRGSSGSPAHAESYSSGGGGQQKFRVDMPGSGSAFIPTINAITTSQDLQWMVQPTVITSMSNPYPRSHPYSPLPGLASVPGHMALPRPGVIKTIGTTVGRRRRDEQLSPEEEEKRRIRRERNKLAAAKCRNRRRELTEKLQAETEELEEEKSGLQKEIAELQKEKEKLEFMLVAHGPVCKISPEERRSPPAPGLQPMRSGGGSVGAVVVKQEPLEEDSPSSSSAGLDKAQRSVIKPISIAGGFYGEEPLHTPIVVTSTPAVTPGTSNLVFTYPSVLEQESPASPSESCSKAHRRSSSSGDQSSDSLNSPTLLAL

cep70_human CEP70 [3] = molecular target: cep70_human CEP70 (UniProt Q8NHQ1); remark: listed apart in the source
tri41_human TRIM41 [4] = molecular target: tri41_human TRIM41 (UniProt Q8WV44); remark: listed apart in the source
efs_human EFS = efs_human EFS (UniProt O43281)
stat3_human STAT3 = stat3_human STAT3 (UniProt P40763)
kr101_human KRTAP10-1 = kr101_human KRTAP10-1 (UniProt P60331)
tb22b_human TBC1D22B = tb22b_human TBC1D22B (UniProt Q9NU19)
ap2m1_human AP2M1 = ap2m1_human AP2M1 (UniProt Q96CW1)
frih_human FTH1 = frih_human FTH1 (UniProt P02794)
ptps_human PTS = ptps_human PTS (UniProt Q03393)
pram_human PRAM1 = pram_human PRAM1 (UniProt Q96QH2)
FBP1 = FBP1 (UniProt P09467)
phs_human PCBD1 = phs_human PCBD1 (UniProt P61457)
Sequence of phs_human PCBD1 (P61457 whole entry): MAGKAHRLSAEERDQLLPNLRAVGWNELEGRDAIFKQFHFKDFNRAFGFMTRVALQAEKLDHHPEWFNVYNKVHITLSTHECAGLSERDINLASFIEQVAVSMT

lcp2_human LCP2 = lcp2_human LCP2 (UniProt Q13094)
cdkl3_human CDKL3 = cdkl3_human CDKL3 (UniProt Q8IVW4)
scel_human SCEL = scel_human SCEL (UniProt O95171)
cep70_human CEP70 [5] = molecular target: cep70_human CEP70 (UniProt Q8NHQ1); remark: listed apart in the source

Sequence of Zinc finger and SCAN domain-containing protein 22 (Homo sapiens), P10073 A321V (P10073 whole entry A321V, the tested form may be a part): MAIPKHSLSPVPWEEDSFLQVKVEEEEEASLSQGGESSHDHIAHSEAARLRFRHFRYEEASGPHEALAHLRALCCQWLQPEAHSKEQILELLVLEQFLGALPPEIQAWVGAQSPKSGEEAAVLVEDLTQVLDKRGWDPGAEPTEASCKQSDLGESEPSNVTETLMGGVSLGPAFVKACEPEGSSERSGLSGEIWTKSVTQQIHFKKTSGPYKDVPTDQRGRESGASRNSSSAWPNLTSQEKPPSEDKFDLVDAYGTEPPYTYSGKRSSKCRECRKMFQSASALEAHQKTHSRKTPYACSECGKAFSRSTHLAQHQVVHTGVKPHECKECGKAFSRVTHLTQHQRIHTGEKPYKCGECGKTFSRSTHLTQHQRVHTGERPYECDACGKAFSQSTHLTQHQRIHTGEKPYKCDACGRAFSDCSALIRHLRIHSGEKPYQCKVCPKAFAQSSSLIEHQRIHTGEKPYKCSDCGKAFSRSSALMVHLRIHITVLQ
Sequence of Importin subunit alpha-6 (Homo sapiens), O15131 F48L (O15131 whole entry F48L): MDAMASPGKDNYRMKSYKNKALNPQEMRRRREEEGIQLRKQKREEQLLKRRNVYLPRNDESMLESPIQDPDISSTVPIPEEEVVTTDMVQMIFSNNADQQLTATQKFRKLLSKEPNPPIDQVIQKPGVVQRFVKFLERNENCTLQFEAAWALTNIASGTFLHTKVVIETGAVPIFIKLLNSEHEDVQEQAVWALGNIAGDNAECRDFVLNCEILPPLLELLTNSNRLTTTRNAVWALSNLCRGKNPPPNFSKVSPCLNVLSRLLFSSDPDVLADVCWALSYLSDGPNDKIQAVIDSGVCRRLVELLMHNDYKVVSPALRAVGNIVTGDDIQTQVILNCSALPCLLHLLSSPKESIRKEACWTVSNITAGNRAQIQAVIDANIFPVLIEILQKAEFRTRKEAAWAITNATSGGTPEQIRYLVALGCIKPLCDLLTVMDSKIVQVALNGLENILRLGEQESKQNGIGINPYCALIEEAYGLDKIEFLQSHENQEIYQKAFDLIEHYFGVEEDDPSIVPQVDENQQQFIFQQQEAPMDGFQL
Sequence of Troponin T, slow skeletal muscle (Homo sapiens), P13805 R39S (P13805 whole entry R39S): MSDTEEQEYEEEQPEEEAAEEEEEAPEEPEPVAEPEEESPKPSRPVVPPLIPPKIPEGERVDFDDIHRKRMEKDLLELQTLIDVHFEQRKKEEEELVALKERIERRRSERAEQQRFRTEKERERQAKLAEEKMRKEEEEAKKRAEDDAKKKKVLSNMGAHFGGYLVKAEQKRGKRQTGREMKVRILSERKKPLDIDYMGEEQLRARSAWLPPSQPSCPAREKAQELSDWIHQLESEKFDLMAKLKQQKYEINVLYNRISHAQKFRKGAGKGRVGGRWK
Sequence of Tyrosine-protein kinase Blk (Homo sapiens), P51451 A71T (P51451 whole entry A71T): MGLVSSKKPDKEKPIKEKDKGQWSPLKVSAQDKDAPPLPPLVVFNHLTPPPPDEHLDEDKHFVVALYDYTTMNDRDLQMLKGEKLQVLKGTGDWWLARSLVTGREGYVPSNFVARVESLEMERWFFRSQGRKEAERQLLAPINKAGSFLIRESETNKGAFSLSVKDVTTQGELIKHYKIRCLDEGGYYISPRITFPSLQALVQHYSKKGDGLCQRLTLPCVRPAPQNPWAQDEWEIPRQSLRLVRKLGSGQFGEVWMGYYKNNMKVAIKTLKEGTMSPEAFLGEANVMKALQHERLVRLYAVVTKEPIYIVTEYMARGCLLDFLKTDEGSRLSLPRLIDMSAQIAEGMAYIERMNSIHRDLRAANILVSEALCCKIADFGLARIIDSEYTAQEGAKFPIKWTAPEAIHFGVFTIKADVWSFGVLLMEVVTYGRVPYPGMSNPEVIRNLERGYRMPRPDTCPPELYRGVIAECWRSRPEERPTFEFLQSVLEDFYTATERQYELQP
Sequence of Polypyrimidine tract-binding protein 1 (Homo sapiens), P26599 A173T (P26599 whole entry A173T): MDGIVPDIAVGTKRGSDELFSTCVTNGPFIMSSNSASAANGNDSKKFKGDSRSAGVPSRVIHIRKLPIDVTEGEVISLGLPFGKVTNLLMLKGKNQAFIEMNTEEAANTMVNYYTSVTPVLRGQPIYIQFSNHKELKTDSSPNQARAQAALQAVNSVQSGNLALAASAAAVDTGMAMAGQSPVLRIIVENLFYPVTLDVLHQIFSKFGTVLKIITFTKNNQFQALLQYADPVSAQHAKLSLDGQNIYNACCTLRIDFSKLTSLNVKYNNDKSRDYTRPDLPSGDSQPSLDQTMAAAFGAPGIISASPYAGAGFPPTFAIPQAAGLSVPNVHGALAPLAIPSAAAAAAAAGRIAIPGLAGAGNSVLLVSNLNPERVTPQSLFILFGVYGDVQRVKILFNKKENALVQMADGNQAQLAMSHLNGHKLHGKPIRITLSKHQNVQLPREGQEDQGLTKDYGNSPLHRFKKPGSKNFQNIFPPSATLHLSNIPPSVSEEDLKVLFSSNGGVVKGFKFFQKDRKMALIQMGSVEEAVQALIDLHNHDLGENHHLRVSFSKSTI
Sequence of Protein S100-A2 (Homo sapiens), P29034 S62N (P29034 whole entry S62N): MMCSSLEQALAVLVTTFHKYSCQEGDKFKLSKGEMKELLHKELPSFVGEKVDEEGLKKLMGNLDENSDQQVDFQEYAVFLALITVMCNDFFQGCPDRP

Toll-interacting protein (Homo sapiens) (from UniProt Q9H0E2) I264V
effect of a mutation on the interaction (tom1_human TOM1): with no effect

Atypical kinase COQ8A, mitochondrial (Homo sapiens), Q8NI60 D100Y
effect of a mutation on the interaction (reep6_human REEP6): with no effect
effect of a mutation on the interaction (atrap_human AGTRAP): with no effect
effect of a mutation on the interaction (tfp11_human TFIP11): with no effect

Golgi reassembly-stacking protein 2 (Homo sapiens) (from UniProt Q9H8Y8) S432F
effect of a mutation on the interaction (nqo2_human NQO2): with no effect
effect of a mutation on the interaction (rgs3_human RGS3): with no effect
effect of a mutation on the interaction (stox1_human STOX1): with no effect

Zinc finger and SCAN domain-containing protein 22 (Homo sapiens), P10073 A321V
effect of a mutation on the interaction (zn446_human ZNF446): with no effect
effect of a mutation on the interaction (zn496_human ZNF496): with no effect
effect of a mutation on the interaction (zsc32_human ZSCAN32): with no effect
effect of a mutation on the interaction (pgbd1_human PGBD1): with no effect

Toll-interacting protein (Homo sapiens) (from UniProt Q9H0E2) A222S
effect of a mutation on the interaction (odam_human ODAM): with no effect
effect of a mutation on the interaction (rhxf2_human RHOXF2): with no effect

Protein S100-A2 (Homo sapiens), P29034 S62N
effect of a mutation on the interaction (S100A1): with no effect

Zinc finger protein 490 (Homo sapiens), Q9ULM2 E419K
effect of a mutation on the interaction (cc136_human CCDC136): with no effect
effect of a mutation on the interaction (cep70_human CEP70 [1]): with no effect
effect of a mutation on the interaction (tri41_human TRIM41 [2]): with no effect
effect of a mutation on the interaction (mtus2_human MTUS2): with no effect
effect of a mutation on the interaction (zc4h2_human ZC4H2): with no effect

Importin subunit alpha-6 (Homo sapiens), O15131 F48L
effect of a mutation on the interaction (nup50_human NUP50): with no effect
effect of a mutation on the interaction (spopl_human SPOPL): with no effect
effect of a mutation on the interaction (an32b_human ANP32B): with no effect

Troponin T, slow skeletal muscle (Homo sapiens), P13805 R39S
effect of a mutation on the interaction (ccdb1_human CCNDBP1): with no effect
effect of a mutation on the interaction (nf2l2_human NFE2L2): with no effect
effect of a mutation on the interaction (jkip2_human JAKMIP2): with no effect

NEDD4-like E3 ubiquitin-protein ligase WWP2 (Homo sapiens), O00308 R315C
effect of a mutation on the interaction (leg9b_human LGALS9B): with no effect
effect of a mutation on the interaction (pdli7_human PDLIM7): with no effect
effect of a mutation on the interaction (anr44_human ANKRD44): with no effect

Polypyrimidine tract-binding protein 1 (Homo sapiens), P26599 A173T
effect of a mutation on the interaction (snrpa_human SNRPA): with no effect
effect of a mutation on the interaction (ptbp2_human PTBP2): with no effect

Golgi-associated PDZ and coiled-coil motif-containing protein (Homo sapiens) (from UniProt Q9HD26) L123V
effect of a mutation on the interaction (mycd_human MYOCD): with no effect
effect of a mutation on the interaction (gt253_human CERCAM): with no effect
effect of a mutation on the interaction (vtnc_human VTN): with no effect
effect of a mutation on the interaction (fosl2_human FOSL2): with no effect

Zinc finger protein 329 (Homo sapiens), Q86UD4 N182D
effect of a mutation on the interaction (cep70_human CEP70 [3]): with no effect
effect of a mutation on the interaction (tri41_human TRIM41 [4]): with no effect

Tyrosine-protein kinase Blk (Homo sapiens), P51451 A71T
effect of a mutation on the interaction (efs_human EFS): with no effect
effect of a mutation on the interaction (stat3_human STAT3): with no effect

Zinc finger protein 264 (Homo sapiens), O43296 G166D
effect of a mutation on the interaction (kr101_human KRTAP10-1): with no effect

RNA-binding protein FXR2 (Homo sapiens), P51116 K651E
effect of a mutation on the interaction (tb22b_human TBC1D22B): with no effect
effect of a mutation on the interaction (ap2m1_human AP2M1): with no effect
effect of a mutation on the interaction (frih_human FTH1): with no effect
effect of a mutation on the interaction (ptps_human PTS): with no effect
effect of a mutation on the interaction (pram_human PRAM1): with no effect
effect of a mutation on the interaction (FBP1): disrupting interaction strength
effect of a mutation on the interaction (phs_human PCBD1): with no effect
effect of a mutation on the interaction (lcp2_human LCP2): with no effect
effect of a mutation on the interaction (cdkl3_human CDKL3): with no effect
effect of a mutation on the interaction (scel_human SCEL): with no effect

Zinc finger protein 227 (Homo sapiens), Q86WZ6 P249S
effect of a mutation on the interaction (cep70_human CEP70 [5]): with no effect
